Key:
Assay in all cases: SPR, captured antibody, Sema3A domain analyte
[1] = molecular target: T1, Dog Semaphorin3A-Sema Domain, TPP-19121 (dog, UniProt Q63548 21-569 (rat entry), limits assumed)
T1 construct: produced inhouse
T1 chain: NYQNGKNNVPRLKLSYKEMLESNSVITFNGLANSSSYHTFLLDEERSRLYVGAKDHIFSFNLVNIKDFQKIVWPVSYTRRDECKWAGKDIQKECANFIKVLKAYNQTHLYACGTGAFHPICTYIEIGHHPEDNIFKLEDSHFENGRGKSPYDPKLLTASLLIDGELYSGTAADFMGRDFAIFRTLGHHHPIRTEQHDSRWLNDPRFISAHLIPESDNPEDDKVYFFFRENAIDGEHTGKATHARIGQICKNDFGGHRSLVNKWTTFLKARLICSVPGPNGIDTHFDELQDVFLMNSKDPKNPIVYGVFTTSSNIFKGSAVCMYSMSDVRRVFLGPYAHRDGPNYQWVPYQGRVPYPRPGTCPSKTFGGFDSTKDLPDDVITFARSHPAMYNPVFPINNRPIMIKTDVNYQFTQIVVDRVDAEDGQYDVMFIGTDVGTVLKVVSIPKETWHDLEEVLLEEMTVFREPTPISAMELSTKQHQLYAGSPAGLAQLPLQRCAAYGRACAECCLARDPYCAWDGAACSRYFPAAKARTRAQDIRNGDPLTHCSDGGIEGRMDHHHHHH
Description: (§1) To assess the binding activity of anti-Sema3A antibodies binding assays were conducted using surface plasmon resonance (SPR). Binding assays were performed on a Biacore T200 instrument (Cytiva) at 25° C. using assay buffer HBS P+, 300 mM NaCl, 0.75 mM CaCl₂, 2.5 mM MgCl₂, 1 mg/ml BSA, 0.05% NaN₃. Antibodies were captured via anti-human Fc IgGs (“Human antibody capture kit”, Order No. BR100839, Cytiva) covalently amine coupled to a Series S CM5 sensor chip (Cytiva). The amine coupling was carried out according to the manufacturer's instructions using 1-ethyl-3-(3-dimethylaminopropyl) carbodiimide hydrochloride (EDC), N-hydroxysuccinimide (NHS) and ethanolamine HCl, pH 8.5 (“Amine Coupling Kit” BR-1000-50, Cytiva.). Human, mouse, cynomolgus, rat, dog and pig monovalent Sema3A domain were used as analytes in a concentration series from 0.024-3.125 nM in multi cycle kinetics mode. The sensor surface was regenerated with glycine pH 2.0 after each antigen injection. Obtained sensorgrams were double referenced (subtraction of reference flow cell signal and buffer injection) and were fitted to a 1:1 Langmuir binding model using the Biacore T200 Evaluation software obtaining the experimental fitted RMax value. To calculate the binding activity first the theoretical RMax needs to be calculated according to equation 1: […]
(§2) Binding activity was determined by dividing the experimental determined RMax by the theoretical calculated RMax according to equation 2: […]

[2] = molecular target: T2, Human Semaphorin3A-Sema Domain, TPP-19068 (human, UniProt Q14563 21-569)
T2 construct: produced inhouse in HEK293-6E; also called human monovalent Sema3A domain
T2 sequence: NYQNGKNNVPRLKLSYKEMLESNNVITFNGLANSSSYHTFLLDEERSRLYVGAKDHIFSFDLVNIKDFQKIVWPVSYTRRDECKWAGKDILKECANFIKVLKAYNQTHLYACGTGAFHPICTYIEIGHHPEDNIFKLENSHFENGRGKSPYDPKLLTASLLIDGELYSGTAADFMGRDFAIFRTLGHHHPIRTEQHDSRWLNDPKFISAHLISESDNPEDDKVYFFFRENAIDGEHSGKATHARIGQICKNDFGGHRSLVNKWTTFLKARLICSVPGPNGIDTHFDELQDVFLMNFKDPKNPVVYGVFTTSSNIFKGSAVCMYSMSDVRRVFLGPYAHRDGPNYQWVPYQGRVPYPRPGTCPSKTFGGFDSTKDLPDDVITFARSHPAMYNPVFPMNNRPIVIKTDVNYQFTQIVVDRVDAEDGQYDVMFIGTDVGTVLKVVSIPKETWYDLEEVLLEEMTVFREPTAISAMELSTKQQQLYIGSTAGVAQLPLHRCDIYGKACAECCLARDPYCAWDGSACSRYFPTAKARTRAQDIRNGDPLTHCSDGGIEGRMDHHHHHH
Description: as §1, §2

[3] = molecular target: T3, Rat Semaphorin3A-Sema Domain, TPP-19120 (rat, UniProt Q63548 21-569)
T3 construct: produced inhouse
T3 sequence: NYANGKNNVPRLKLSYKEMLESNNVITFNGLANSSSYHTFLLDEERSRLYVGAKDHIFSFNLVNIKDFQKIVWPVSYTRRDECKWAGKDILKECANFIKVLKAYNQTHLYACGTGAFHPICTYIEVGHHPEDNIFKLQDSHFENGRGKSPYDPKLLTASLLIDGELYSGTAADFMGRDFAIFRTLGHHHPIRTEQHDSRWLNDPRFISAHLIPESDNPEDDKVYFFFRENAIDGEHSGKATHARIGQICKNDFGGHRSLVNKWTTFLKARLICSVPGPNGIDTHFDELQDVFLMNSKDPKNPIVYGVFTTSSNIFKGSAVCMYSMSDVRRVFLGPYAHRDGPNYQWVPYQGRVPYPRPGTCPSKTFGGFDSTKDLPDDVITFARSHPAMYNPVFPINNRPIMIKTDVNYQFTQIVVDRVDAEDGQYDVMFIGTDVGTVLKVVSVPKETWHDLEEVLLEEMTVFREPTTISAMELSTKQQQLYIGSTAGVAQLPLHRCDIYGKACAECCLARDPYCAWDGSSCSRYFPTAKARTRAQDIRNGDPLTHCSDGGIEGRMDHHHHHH
Description: as §1, §2

[4] = molecular target: T4, Cyno Semaphorin3A-Sema Domain, TPP-19122 (cynomolgus (Macaca fascicularis), UniProt Q63548 21-569 (rat entry), limits assumed)
T4 construct: produced inhouse
T4 chain: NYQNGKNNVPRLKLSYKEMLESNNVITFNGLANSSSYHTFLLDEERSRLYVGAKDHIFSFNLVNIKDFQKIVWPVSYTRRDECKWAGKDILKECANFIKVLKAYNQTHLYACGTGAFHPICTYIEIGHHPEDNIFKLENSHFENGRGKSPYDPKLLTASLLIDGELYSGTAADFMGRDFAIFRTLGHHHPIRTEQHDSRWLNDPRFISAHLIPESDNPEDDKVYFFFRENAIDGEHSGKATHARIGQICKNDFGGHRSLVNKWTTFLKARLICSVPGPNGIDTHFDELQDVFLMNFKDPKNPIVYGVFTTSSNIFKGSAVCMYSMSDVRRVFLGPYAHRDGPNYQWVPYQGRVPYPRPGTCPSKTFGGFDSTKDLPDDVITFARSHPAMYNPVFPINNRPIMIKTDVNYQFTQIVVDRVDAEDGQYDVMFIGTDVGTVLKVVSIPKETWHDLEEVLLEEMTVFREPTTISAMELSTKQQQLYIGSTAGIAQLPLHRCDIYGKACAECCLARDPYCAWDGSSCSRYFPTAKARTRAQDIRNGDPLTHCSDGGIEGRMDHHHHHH
Description: as §1, §2

Row | Binder | Binding Activity [%] [1] | Binding Activity [%] [2] | Binding Activity [%] [3] | Binding Activity [%] [4]
1 | TPP-11489 (antibody, human IgG1, lambda, human IgG1; also called Chiome; Chiome Prior Art (hIgG1)) heavy: not shown light: SYELTQPPSVSVSPGQTARITCSGGGSYTGSYYYGWYQQKPGQAPVTVIYYNNKRPSDIPERFSGSLSGTTNTLTISGVQAEDEADYYCGSADNSGDAFGTGTKVTVLGQPKAAPSVTLFPPSSEELQANKATLVCLISDFYPGAVTVAWKADSSPVKAGVETTTPSKQSNNKYAASSYLSLTPEQWKSHRSYSCQVTHEGSTVEKTVAPTECS | 22% | 38% | 31% | 13%
2 | TPP-15370 (antibody, human IgG1, lambda, V domains shown, human IgG1; also called IgG1, hit from panning; parental mAb) VH: EVQLLESGGGLVQPGGSLRLSCAASGFTFSSYGMHWVRQAPGKGLEWVSAIGTGGDTYYADSVMGRFTISRDNSKNTLYLQMNSLRAEDTAVYYCARRDDYTSRDAFDVWGQGTLVTVSS VL: not shown | 114% | 112% | 113% | 139%
3 | TPP-30788 (antibody, human IgG1, kappa, V domains shown, prior art, WO 2020/225400; also called BI clone I; Böhringer (BI) Clone I) VH: EVQLVESGGGLVQPGGSLRLSCAASGFTFSSYYMSWVRQAPGKGLEWVSTIIKSGGYAYYPDSVKDRFTISRDNSKNTLYLQMSSLRAEDTAVYYCVRGGQGAMDYWGQGTTVTVSS VL: EIVLTQSPATLSLSPGERATLSCRASQSIGDYLHWYQQKPGQAPRLLIKYASQSISGIPARFSGSGSGTDFTLTITSLEPEDFAVYYCQQGYSFPYTFGGGTKLEIKR | 106% | 107% | 109% | 107%
4 | TPP-15374 (antibody, human IgG1, lambda, V domains shown, human IgG1; also called IgG1, hit from panning; parental mAb) VH: EVQLLESGGGLVQPGGSLRLSCAASGFTFSSYEMNWVRQAPGKGLEWVSGISWNSGSIGYADSVKGRFTISRDNSKNTLYLQMNSLRAEDTAVYYCARSGYSSSWFDPDFDYWGQGTLVTVSS VL: QSVLTQPPSASGTPGQRVTISCTGSSSNIGAGYDVHWYQQLPGTAPKLLIYGNSNRPSGVPDRFSGSKSGTSASLAISGLRSEDEADYYCSSYAGSNPYVVFGGGTKLTVLG | 98% | 10% | 94% | 104%
5 | TPP-17755 (antibody, human IgG1, lambda, V domains shown, also called Samsung; Samsung Prior Art F11) VH: EVQLLESGGGLVQTGGSLRLSCAASGFTFSDYAMSWVRQAPGKGLEWVSWIYYDSGSKYYADSVKGRFTISRDNSKNTLYLQMNSLRAEDTAVYYCAKLNGDFDYWGQGTLVTVSS VL: QSVLTQPPSASGTPGQRVTISCSGSSSNIGNNDVSWYQQLPGTAPKLLIYADSHRPSGVPDRFSGSKSGTSASLAISGLRSEDEADYYCGAWDSSLSGYVFGGGTKLTVLG | 55% | 55% | 56% | 53%

Now from value to binder:

Row | Binding Activity [%] [1] | Binding Activity [%] [2] | Binding Activity [%] [3] | Binding Activity [%] [4] | Binder
6 | 107% | 107% | 108% | 106% | TPP-23298 (antibody, human IgG4 S228P, lambda, V domains shown) VH: EVQLLESGGGLVQPGGSLRLSCAASGFTFYSYAMSWVRQAPGKGLEWVSAIGTGGDTYYADSVKGRFTISRDNSKNTLYLQMNSLRAEDTAVYYCARRDDYTSRDAFDYWGQGTLVTVSS VL: not shown
7 | 102% | 106% | 104% | 103% | TPP-30789 (antibody, human IgG1, kappa, V domains shown, prior art, WO 2020/225400; also called BI clone II; Böhringer (BI) Clone II) VH: EVQLVESGGGLVQPGGSLRLSCAASGFPFSSYYMSWVRQAPGKGLEWVSTIIKSGGYAYYPDSVKDRFTISRDNSKNTLYLQMSSLRAEDTAVYYCVRGGQGAMDYWGQGTTVTVSS VL: EIVLTQSPATLSLSPGERATLSCRASQSIGDYLHWYQQKPGQAPRLLIKYASQSISGIPARFSGSGSGTDFTLTITSLEPEDFAVYYCQQGYSFPYTFGGGTKLEIKR
8 | 106% | 107% | 109% | 107% | TPP-30791 (antibody, human IgG1, kappa, V domains shown, prior art, WO 2020/225400; also called BI clone IV; Böhringer (BI) Clone IV) VH: EVQLVESGGGLLQLGGSLRLSCAASGFTFSSYYMSWVRQAPGKGLEWVSTIIKSGGYAYYPDSVKDRFTISRDNSKNTLNLQMNSLRAEDTAVYYCVKGGQGAMDYWGQGTTVTVSS VL: EIVLTQSPATLSLSPGERATLSCRASQSIGDYLHWYQQKPGQAPRLLIKYASQSISGIPARFSGSGSGTDFTLTISSLEPEDFAVYYCQQGYSFPYTFGGGTKLEIKR
9 | 92% | 93% | 94% | 92% | TPP-30790 (antibody, human IgG1, kappa, V domains shown, prior art, WO 2020/225400; also called BI clone III; Böhringer (BI) Clone III) VH: EVQLVESGGGLVQLGGSLRLSCAASGFTFSSYYMSWVRQAPGKGLEWVSTIIKSGGYAYYPDSVKDRFTISRDNSKNTLYLQMNSLRAEDTAVYYCVKGGQGAMDYWGQGTTVTVSS VL: EIVLTQSPATLSLSPGERATLSCRASQSIGDYLHWYQQKPGQAPRLLIYYASQSISGIPARFSGSGSGTDFTLTISSLEPEDFAVYYCQQGYSFPYTFGGGTKLEIKR
